Source: patent publication US20260168983A1, “YaxAB NANOPORE, NANOPORE SYSTEM COMPRISING SAME AND APPLICATIONS THEREOF” (KOREA RESEARCH INSTITUTE OF BIOSCIENCE AND BIOTECHNOLOGY, priority 2022, published 2026)

Target: Bcl-xL protein, Q07817
Assay: YaxAB nanopore; Bcl-xL with a mix of four competing peptides at 1:15

Chain of Bcl-xL protein, Q07817 (Q07817 1-209): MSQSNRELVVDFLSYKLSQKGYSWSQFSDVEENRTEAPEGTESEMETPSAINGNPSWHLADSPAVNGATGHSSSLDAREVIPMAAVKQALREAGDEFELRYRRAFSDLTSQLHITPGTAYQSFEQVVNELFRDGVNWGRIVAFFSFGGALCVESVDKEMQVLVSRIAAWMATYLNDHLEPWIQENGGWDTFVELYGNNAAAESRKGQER

Row | Binder | signal frequency of the Bcl-xL-peptide complex [%]
1 | GQVGRQLAIIGDDANR (modifications not checked) [Bak_BH3_I85A, Q16611 72-87] | 7
2 | GQVGRQAAIIGDDINR (modifications not checked) [Bak_BH3_L78A, Q16611 72-87] | 3
